Measured values from publication PMC8190030.

Columns and labels:
Conditions in all cases: remark: other sources report otherwise
[1] = target: T1, N- (neural) cadherin of human fibroblasts (human (endogenous in primary fibroblasts)), P19022; assay: AFM single-cell force spectroscopy; as a1, approach and retract velocity 5 µm/sec
T1 chain: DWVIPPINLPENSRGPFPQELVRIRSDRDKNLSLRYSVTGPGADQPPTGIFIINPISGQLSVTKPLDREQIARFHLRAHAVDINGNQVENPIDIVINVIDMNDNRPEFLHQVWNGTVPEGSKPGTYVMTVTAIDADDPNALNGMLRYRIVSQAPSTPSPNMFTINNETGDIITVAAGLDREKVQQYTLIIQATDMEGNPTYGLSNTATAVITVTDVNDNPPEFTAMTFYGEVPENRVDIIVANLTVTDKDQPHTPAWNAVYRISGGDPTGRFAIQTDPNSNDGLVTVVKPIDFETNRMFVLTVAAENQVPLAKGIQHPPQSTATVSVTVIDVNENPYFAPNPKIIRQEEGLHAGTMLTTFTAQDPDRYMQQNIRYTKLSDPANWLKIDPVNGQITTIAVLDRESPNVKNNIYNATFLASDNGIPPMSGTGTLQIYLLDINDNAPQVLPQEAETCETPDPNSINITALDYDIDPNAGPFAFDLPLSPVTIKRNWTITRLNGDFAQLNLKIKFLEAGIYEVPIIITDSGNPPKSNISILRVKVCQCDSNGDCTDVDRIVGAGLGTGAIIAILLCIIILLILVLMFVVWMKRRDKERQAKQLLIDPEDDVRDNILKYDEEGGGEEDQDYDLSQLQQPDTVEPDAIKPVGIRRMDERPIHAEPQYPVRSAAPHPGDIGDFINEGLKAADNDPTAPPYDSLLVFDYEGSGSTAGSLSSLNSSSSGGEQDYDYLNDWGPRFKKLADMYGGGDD

[2] = target: T1, N- (neural) cadherin of human …; assay: AFM single-cell force spectroscopy; with 5 µM ML-7 (myosin light chain kinase inhibited); cell on cantilever against cell monolayer
[3] = target: T1, N- (neural) cadherin of human …; assay: AFM single-cell force spectroscopy; control of the drug series (no drug and no DMSO); cell on cantilever against cell monolayer; velocity not stated for this series
[4] = target: T1, N- (neural) cadherin of human …; assay: AFM single-cell force spectroscopy; living cell on a conA-coated tipless cantilever against a cell monolayer in a Petri dish; approach and retract velocity 3 µm/sec, maximum loading force 3 nN, contact time 2 s; 5% CO2; cadherin type assigned from immunofluorescence
[5] = target: T1, N- (neural) cadherin of human …; assay: AFM single-cell force spectroscopy; as a1, approach and retract velocity 7.5 µm/sec
[6] = target: T1, N- (neural) cadherin of human …; assay: AFM single-cell force spectroscopy; control of the drug series (no drug and no DMSO); cell on cantilever against cell monolayer; velocity not stated for this series
[7] = target: T1, N- (neural) cadherin of human …; assay: AFM single-cell force spectroscopy; DMSO control of the drug series; cell on cantilever against cell monolayer
[8] = target: T1, N- (neural) cadherin of human …; assay: as above
[9] = target: T1, N- (neural) cadherin of human …; assay: AFM single-cell force spectroscopy; with 5 µM cytochalasin D (actin filaments disassembled); cell on cantilever against cell monolayer
[10] = target: T1, N- (neural) cadherin of human …; assay: AFM single-cell force spectroscopy; as a1, approach and retract velocity 10 µm/sec

median rupture force (NF–NF cells) [1]: 73.4 pN
median rupture force (SF–SF cells) [1]: 74.2 pN
median rupture force (NF–NF cells) [2]: 48.9 pN
median rupture force (SF–SF cells) [2]: 49 pN
median rupture force (NF–NF cells) [3]: 61.9 pN
median rupture force (SF–SF cells) [3]: 58.4 pN
median rupture force (NF–NF cells) [4]: 51.9 pN
median rupture force (SF–SF cells) [4]: 45.2 pN
median rupture force (NF–NF cells) [5]: 97.2 pN
median rupture force (SF–SF cells) [5]: 103 pN
median rupture force (NF–NF cells) [6]: 58.8 pN
median rupture force (SF–SF cells) [6]: 66.2 pN
median rupture force (NF–NF cells) [7]: 60.2 pN
median rupture force (SF–SF cells) [7]: 48.3 pN
median rupture force (NF–NF cells) [8]: 52 pN
median rupture force (SF–SF cells) [8]: 53.1 pN
median rupture force (NF–NF cells) [9]: 31.1 pN
median rupture force (SF–SF cells) [9]: 30.5 pN
median rupture force (NF–NF cells) [10]: 117 pN
median rupture force (SF–SF cells) [10]: 129 pN
B1: N- (neural) cadherin of human fibroblasts, P19022 160-906 (natural protein)
chain: T1 chain
